Patent publication US5750365, “Isolated nucleic acid encoding a newt acidic fibroblast growth factor (AFGF)” (The Ohio State University Research Foundation, dated 1998)

Experiments:
[1] = molecular target: recombinant human aFGF (human, UniProt P05230, 125I-labeled); assay: Scatchard plot of 125I-aFGF binding to KPTr2-2 cells (CHO-K1 expressing newt KGFR)
[2] = molecular target: bovine brain aFGF (bovine, UniProt P03968, 125I-labeled); assay: chemical crosslinking (DSS) on CHO-K1 cells over-expressing newt KGFR, SDS-PAGE
Protocol: (§1) CHO cells transfected with pBJ5 vector (lane 1) or with newt KGFR expression vector (lanes 2–4) were crosslinked with ^125I-aFGF using 0.3 mM disuccinimidyl suberate (DSS). Excess amounts (500-fold) of aFGF (lane 3) or KGF (lane 4) were used to compete with ^125I-aFGF. Crosslinked products were analyzed on a 7.5% SDS-polyacrylamide gel.
(§2) To characterize the newt FGFR cDNA functionally, the newt KGFR were expressed in CHO-K1 cells. The mammalian expression vector, pBJ5, which contains a chimeric promoter derived from HTLV-I and SV40, was used to express the newt KGFR and FGFR2 cDNA. […] The crosslinked product can be successfully competed off with a 500-fold molar excess of cold aFGF or human recombinant KGF as shown in FIG. 11. The crosslinked product is absent in KPTr1-8, the CHO cells that were transfected with the pBJ5 vector alone. The crosslinked product thus appears to be specific. Similarly, a cell line over-expressing the human KGFR (T-1063-29-2 from S. A. Aaronson, NIH) was able to produce a somewhat smaller crosslinked product than the newt KGFR. Antibodies (both monoclonal and polyclonal) directed against a peptide from the carboxyl terminus of the newt FGFR2 are generated.

[3] = molecular target: T1, human recombinant KGF (human, UniProt P21781); assay: competition of 125I-aFGF crosslinking on KPTr2-2 cells; competitor in 500-fold molar excess
T1 sequence: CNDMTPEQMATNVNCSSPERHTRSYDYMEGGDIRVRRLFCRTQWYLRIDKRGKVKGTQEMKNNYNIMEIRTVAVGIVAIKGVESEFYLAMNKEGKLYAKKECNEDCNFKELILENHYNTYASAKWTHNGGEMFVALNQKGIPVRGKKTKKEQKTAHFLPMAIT
Protocol: as §1, §2

B1: newt KGFR (KGFR isoform, IIIb, of newt FGFR2; two Ig-like loop variant), expressed on CHO-K1 cells (KPTr2-2) (receptor)
chain: RPSYNIAEDTTLEPEDANSSGDDEDDNDGSEDFTNDNNHMRAPYWTNTEKLEKKLHAVPAANTVKFRCPAGGNPTPSMRWLKNGKEFKQEHRIGGFKVRSQHFSLIMESVVPSDEGNYTCIMENEYGSINHTYHLDVVERSPHRPILQAGLPANTTTKVGGDAEFVCKVYSDAQPHIQWIRHFELNGSKIGPDGHPYLKVLKRSGINSSNAEVLTLHNVTEADRGQYTCKVSNYIGEANQSAWLTVLPASEKDEERELDSSSEYTEIAIYCVGGFLITCMIGTIMVCHMKGRGKKSDFSSPPAVHKLSKSLPLRRQVTVSADSSSSMNSNTPLVRITTRLSSNNDTHLLAGVSEYELPEDPKWEYPREKLTLGKPLGEGCFGQVVMAEAVGIDKDRPKDAATVAVKMLKDDATEKDLSDLVSEMEMMKMIGKHKNIINLLGACTQDGPLYVIVEYASKGNLREYLRTRRPPGMEYSFDINRIPEEQMTFKDLVSCTYQLARGMEYLASQKCIHRDLAARNVLVTETNVMKIADFGLARDINNIDYYKKTTNGRLPVKWMAPEALFDRVYTHQSDVWSFGVLMWEIFTLGGSPYPGIPVEELFKLLKEGHRMDKPGNCTNELYTMMTDCWRAVPSQRPTFKQLVEDLDRILTQTTNEEYLDLNNPLEQYSPSYPDTRSSCSSGDDSVFSPDAMPYDPCLPKSQHTNGTIKT
B1 was tested, and the Kd [1] was 1.3 nM, the binding result [2] was “binds” and the binding result [3] was “binds”.
